These results are taken from US20050229275A1.

For experiment [1], the target named is murine mAbGA733. In words: competition ELISA, free GA733 against coated GA733.
In experiment [2] the target is murine mAbGA733. In words: competition ELISA: free GA733 (1-100 nM) varied, constant murine mAbGA733 (0.063 nM), plates coated with GA733.
In experiment [3] the target is plant produced CO17-1A of Example 9. In words: competition ELISA: free GA733 (1-100 nM) varied, constant plant CO17 (1/500 dilution; protein A purified and ammonium sulfate fractionated preparations alike), plates coated with GA733.
Experiment [4] concerns the target colorectal cancer-associated antigen (Ag) GA733-2 (UniProt P16422). In words: ELISA, leaf extract on plates coated with Ag GA733-2, anti-mouse IgG peroxidase (whole molecule).
Experiment [5] shares this target. In words: ELISA, N. benthamiana leaf extract on plates coated with Ag GA733-2, anti-mouse IgG peroxidase (whole molecule or Fc specific).

As for “colorectal cancer-associated antigen (Ag) GA733-2 (from UniProt P16422 24-265)”, the fold higher antigen concentration for 50% inhibition, against plant expressed CO17-1A in the experiment with murine mAbGA733 [1] was determined as 5 fold. The IC50 with murine mAbGA733 [2] is 35 nM; in experiment [3] it was 6.3 nM.

B1: plant-produced rAB CO17-1A expressed from AlMV vectors A3a17-1ALC and A3b17-1AHC in Rep plants (antibody, INN chains, looked up, V domains shown)
VH: QVQLQQSGAELVRPGTSVKVSCKASGYAFTNYLIEWVKQRPGQGLEWIGVINPGSGGTNYNEKFKGKATLTADKSSSTAYMQLSSLTSDDSAVYFCARDGPWFAYWGQGTLVTVSA
VL: NIVMTQSPKSMSMSVGERVTLTCKASENVVTYVSWYQQKPEQSPKLLIYGASNRYTGVPDRFTGSGSATDFTLTISSVQAEDLADYHCGQGYSYPYTFGGGTKLEIK
modifications: plant-produced
As for B1, in experiment [4], the fold OD490 nm over controls (NI, HC, LC) lay within 2 to 3 fold.

B2: plant-produced rAb CO17-1A expressed from TMV vectors 30B-17HCK and 30B-17LC in Nicotiana benthamiana (antibody, INN chains, looked up, V domains shown, part only)
VH: QVQLQQSGAELVRPGTSVKVSCKASGYAFTNYLIEWVKQRPGQGLEWIGVINPGSGGTNYNEKFKGKATLTADKSSSTAYMQLSSLTSDDSAVYFCARDGPWFAYWGQGTLVTVSA
VL: NIVMTQSPKSMSMSVGERVTLTCKASENVVTYVSWYQQKPEQSPKLLIYGASNRYTGVPDRFTGSGSATDFTLTISSVQAEDLADYHCGQGYSYPYTFGGGTKLEIK
modifications: plant-produced, His tag
As to B2, the fold O.D.490 over controls (NI, HC, LC) in experiment [5] was in the range of 2 to 3 fold.
